# Values quoted from earlier work, collected in publication PMC7214499.
# Biological target: IFNAR2 ECD (Homo sapiens) (UniProt P48551)
# Sequence of UniProt P48551 (P48551 27-243): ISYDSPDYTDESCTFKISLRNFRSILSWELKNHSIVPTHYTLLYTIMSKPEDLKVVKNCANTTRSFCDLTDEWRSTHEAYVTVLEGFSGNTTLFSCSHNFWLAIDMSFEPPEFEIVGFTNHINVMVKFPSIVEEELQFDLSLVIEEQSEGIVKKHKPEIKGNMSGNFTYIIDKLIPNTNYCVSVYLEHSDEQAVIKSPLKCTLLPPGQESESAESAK
substance,measurement,value
IFNα2 (from UniProt P01563),Kd,10 nM
